From patent US5316947A, “Synthetic isohirudins with improved stability” (Hoechst Aktiengesellschaft, priority 1991, dated 1994)

Assays:
thrombin = thrombin (Homo sapiens, UniProt P00734); assay: Comparative Ki value determination on optimized isohirudins (method of Stone and Hofsteenge, chromogenic substrate D-HHT-Gly-Arg-pNA); type: biochemical; details: 25° C., pH 8.3, 0.1 M tris, 0.2 M NaCl, 0.1% Triton X-100; Ki = koff/kon; read-out: Ki(app.)
Method: Ki values were determined by the method of Stone and Hofsteenge (Biochemistry 25, pages 4622-4628, 1986): 0.2 ml of a 1.25 mM solution of D-HHT-Gly-Arg-pNA was equilibrated at 25° C. with 1.7 ml of 0.1 M tris, 0.2 M NaCl and 0.1% (v/v) Triton X-100 pH 8.3 and 0.1 ml of the isohirudin to be tested in 145 mM NaCl. Binding was started by adding 0.05 ml of thrombin solution. The absorption at 405 nm was recorded for a period of 10-20 min.
The reaction follows the equation:
[P]=vs *t+(vo -v5)(1-e^-k*t)/k+d,
[P]=product concentration (nitroaniline) […]
vs =reaction rate in the equilibrium state
The rate constant k was determined by non-linear regression. Extrapolation of k at various inhibitor concentrations to [1]=0 according to […]
yields the rate constants kon and koff and thus Ki =koff /kon.

[1] = 20-hour stability of [Ala1,Thr2] desulfatohirudin analogs at pH 7 and 60° C. (RP HPLC and anion exchange chromatography); type: physicochemical; details: stress conditions: 20 h, 0.5 mg/ml in 20 mM NaP, 300 mM NaCl
Method: The compound to be tested was dissolved in 0.5 mg/ml in 20 mM NaP, pH 7, 300 mM NaCl and incubated at 60° C. for 20 h. Samples were taken at times t=0 and t=20 h and analyzed by RP HPLC (Nucleosil®) and anionic exchange chromatography (Mono Q®). The content of newly formed byproducts was calculated.

[2] = Time course of byproduct formation of desulfatohirudin analogs at pH 6.5 and pH 4, 60° C. (FIG. 4 and FIG. 3); type: physicochemical; details: 1 mg/ml in water, pH 4 (FIG. 3) and pH 6.5 (FIG. 4), up to 96 h
Method: The purified isohirudins, as lyophilisate, were dissolved at 1 mg/ml in water and adjusted to pH 6.5 with 1 M […]. After sterilization by filtration, […]. Samples were taken at times t=0, 5, 24, 48, 72 and 96 h and analyzed by RP HPLC (Nucleosil®) and ion exchange chromatography (Mono®) for the content of byproducts therein. The purity at time t=x is shown relative to the purity at t=0, with in each case the less favorable value from the two analysis systems being used as bases (FIG. 4).
The purified isohirudins, as lyophilisate, were dissolved at 1 mg/ml in water and adjusted to pH 4 with 1 M acetic acid. Incubation and analyses were carried out as in Example 10 (FIG. 3).

Molecule | Ki (thrombin) | % newly formed byproducts [1] | Stability (byproduct formation over time) [2]
[Ile^1,Thr^2 ] desulfatohirudin [reference compound] | 0.61 nM |  | 
[Ala^1,Thr^2 ] desulfatohirudin [reference compound] | 0.2 nM | 23.0% | 
[Ala^1,Thr^2,Glu^33,Glu^53 ] desulfatohirudin | 0.37 nM |  | simple exchange of the aspartic acid does not have the optimal effect
[Leu^1,Thr^2 ] desulfatohirudin [reference compound] | 0.14 nM |  | 
[Ala^1 Thr^2,Glu^33,Ala^54 ] desulfatohirudin (protein, ends and bridges not checked) ATYTDCTESGQNLCLCEGSNVCGQGNKCILGSEGEKNQCVTGEGTPKPQSHNDADFEEIPEEYLQ | 0.35 nM |  | 
[Ala^1,Thr^2,Ala^54 ] desulfatohirudin (protein, ends and bridges not checked) ATYTDCTESGQNLCLCEGSNVCGQGNKCILGSDGEKNQCVTGEGTPKPQSHNDADFEEIPEEYLQ | 0.27 nM |  | 
[Ala^1,Thr^2,Glu^33 ] desulfatohirudin (protein, ends and bridges not checked) ATYTDCTESGQNLCLCEGSNVCGQGNKCILGSEGEKNQCVTGEGTPKPQSHNDGDFEEIPEEYLQ | 0.16 nM | 15.2% | 
[Ala^1,Thr^2,Gln^52,Glu^53,Glu^55 ] desulfatohirudin (protein, ends and bridges not checked) ATYTDCTESGQNLCLCEGSNVCGQGNKCILGSDGEKNQCVTGEGTPKPQSHQEGEFEEIPEEYLQ | 0.19 nM | 14.6% | 
[Ala^1,Thr^2,Glu^33,Gln^52,Glu^53,Ala^54 ]-desulfatohirudin (protein, ends and bridges not checked) ATYTDCTESGQNLCLCEGSNVCGQGNKCILGSEGEKNQCVTGEGTPKPQSHQEADFEEIPEEYLQ | 0.31 nM |  | superior stability
[Ala^1,Thr^2,Glu^53 ] desulfatohirudin (protein, ends and bridges not checked) ATYTDCTESGQNLCLCEGSNVCGQGNKCILGSDGEKNQCVTGEGTPKPQSHNEGDFEEIPEEYLQ | 0.38 nM |  | 
[Ala^1,Thr^2,Glu^33,Gln^52,Glu^53,Glu^55 ]-desulfatohirudin (protein, ends and bridges not checked) ATYTDCTESGQNLCLCEGSNVCGQGNKCILGSEGEKNQCVTGEGTPKPQSHQEGEFEEIPEEYLQ | 0.3 nM | 3.2% | superior stability
[Ala^1,Thr^2,Gln^52,Glu^53,Ala^54 ] desulfatohirudin (protein, ends and bridges not checked) ATYTDCTESGQNLCLCEGSNVCGQGNKCILGSDGEKNQCVTGEGTPKPQSHQEADFEEIPEEYLQ | 0.22 nM |  | 
